Results as given in the DeepSol protein solubility set.

Test: soluble on expression in E. coli; label from the status in PepcDB or PDB records

Row | Sequence | soluble on expression in E. coli
1 | MDQNTTPAPGLRETKKRETRQLISDHATRLFIERGFEHTTIAEIADAARVAKKTVTNYFPRKEDLALDHQDEFVAALAATVTARGAGETPLTALRHAFLAAVAAQDPVAGFAGQAFTRMIADSPTLTACLRGLHDRREEALTAALAGTTDTPPDDITPRTAAALLGGVHRVLFNRIQELTLAGRATPEIAEVLAREAPRAFDLLTPALAEYGRRP | not soluble
2 | MAGMHFLVGISTENYVILAADKATFAYGAILADSENDKEYRLGKKLTMMCIGEEGDVAQFGDWTKRNLQLYSVRNGYEVSPSCAHHFVRRSIAEGLRSQDHYTVDVLIGGYDDKEDKAFLGSVDYLANGLGQQPYLFRGFCGRFCYAIMDREYKKDMTEAEGLALMNKCIGEAKRRFVANIPGYKVVIIDKKGYRKLDDVLF | soluble
3 | MEEGVNMDIRPTRIELIRTRRRIRLAKKGLDLLKMKRSALIYEFLQISRTIRGMKENLRKEVVEALNIIKVASVLEGSLALERIANMSSDSRINVNSRNVMGVNIPTLEVSYNLSILSDVYRTVSVPVAIDDSIRRFQKLFYDLILIVEKENSLRNLLMEIDRTKRRSNAIENILIPRLEYQAKMIKMTLDERERDTFTTLKTIKKKIEAENDLEHHHHHH | not soluble
4 | MPKKFASENPKVTAARDRKATAKKDEADKKAKATEDAKWVDNDKLNNRKMQRKEDDEKKREEALRRKEENRKLAEEEMSSLGNKKPAGAATQKVTRAHIHIRKEDEERINRELEEKRKQEAQKIEVAGDLLVENLNKLEVEEGEARNVDDALKVLGEEKALDDDKHPEKRMRAAYLAFEEARLPELKLNHPTFRLSQLKQILKKEWQKSPENPLNARLLALNS | soluble
5 | MEKLTKRQQDILDFIKLKVQEKGYPPSVREIGQAVGLASSSTVHGHLSRLEEKGYIRRDPTKPRAIEILGEDRMDTETQSVIQVPIVGKVTAGLPITAVESVEEHFPLPASIVAGADQVFMLRISGDSMIEAGIFDGDLVVVRQQQSAYNGEIVVALTEDNEATVKRFYKEKDHFRLQPENSSLEPIILKQVSVIGKVIGVYRDLH | not soluble
6 | AIADYSNTYGAYGGGGFLPESPARTGGNASTRFGVGSGSSLRDQRRSLLPVRVADLVHAVHDPVTNTFVLRDENEHQSITISEGSIVKVVAYVEELREQPLDLLWLLDDRSGEMIWARMASTSSSSLAALEQSGILVRVFGQLLEVDGRRVLNVRAIRKADGEVELRYHENLCQLSKLQLIRGYPTAGNALAGASSSPASPKAGPSKAVHRSSLGSGAPKEMAQQAPGLEIPAAFPPEHFKVLKCIREETARNRDAMLTDIAQRIALSTTKVRGICDALQNEGHIYCTLDDDTFRASSS | soluble
7 | MAIKVGINGFGRIGRSFFRASWGREEIEIVAINDLTDAKHLAHLLKYDSVHGIFKGSVEAKDDSIVVDGKEIKVFAQKDPSQIPWGDLGVDVVIEATGVFRDRENASKHLQGGAKKVIITAPAKNPDITVVLGVNEEKYNPKEHNIISNASCTTNCLAPCVKVLNEAFGVEKGYMVTVHAYTNDQRLLDLPHKDFRRARAAAINIVPTTTGAAKAIGEVIPELKGKLDGTARRVPVPDGSLIDLTVVVNKAPSSVEEVNEKFREAAQKYRESGKVYLKEILQYCEDPIVSTDIVGNPHSAIFDAPLTQVIDNLVHIAAWYDNEWGYSCRLRDLVIYLAERGL | soluble
8 | MGSDKIHHHHHHMNNKKIFLFEFTVGTGLVPDELLAEGKLMFDILLNQFLDENYTVKTVLCEKIAKKYPKYNEINNLEIIVSDNYINSFKEGLDDSDFALAIAPEEDLILYNLTELIEESGCLNLGCEKSGVKIAGDKFLTYEAIKNAVNTPKTFPVKKYVVKNRLGCDSTHDTFDENYIVQEFIEGEPYSVIFIAKNKKFYPVCMNKQYIEKRYCGGEINIEHTLKEKAIIECKKTLEKIEGINGYVGVDLMINGEEISILEVNPRITTSICGIKSKPSIGKLLIDNALEKDIKFEVESCLKFKRNDFGFEFL | not soluble
9 | ATHTAQTQTHLNFTQIKTVDELNQALVEAKGKPVMLDLYADWCVACKEFEKYTFSDPQVQKALADTVLLQANVTANDAQDVALLKHLNVLGLPTILFFDGQGQEHPQARVTGFMDAETFSAHLRDRQPHHHHHH | soluble
10 | TPLSQSSSSKNASDVSGSIQPVDSKSGLQMLFSGYRGIGGVQTLDLQQMSSDIPNAETKTVADQVINAWKQMKYTPFGRSTGSFTIRLNPEHLGFVTIKLTNENGMFQSKIIASSQSAKELLEQHLPQLKQSLPNMAVQIDRFTLPVQS | not soluble
11 | MTENEDLVAGLLLAAGGGRRLGGRPKALLEHRGRPLVEHVAGVLRAAGSTRVYVVLGAQAAAVRERAVLPGCILVDNPDWELGMGTSLRAGLEAMHGTGVRAALVSLVDQPGIGPAAVARVRAAYTSPSTLASAAYDGVRGHPVLFGAAHWAAVAASATGDRGARAYLKAHESAITLVECGDVAEAYDIDTVADLVHLELEHHHHHH | not soluble
12 | LNKELQHERLAYITDSELIIFADFLPTEFVDEYLIDQSEESVAHIQQALSYEDNKVGRYAEPHFLVANPKNSVGGIKTELLKRGQSPVRLIIVRDVGGVIGTIEPQILLLHENHTKLTDLTVVTPILEDIQTIQSVSKQVSIDGGAHWFPIMAGGKIMGVLSMATIAITLRELSLQAVVAENVRSEEDLFTPLTVATRLRAL | not soluble
13 | MENTETLIVEQLKIGNENAYRYIYDHHYALLCYVANGYLKDQFLSETIVGDTIFHLWEIRETLDISVSIRSYLLRAVRNRCINYLNSEREKREIAFSALMPDEITDDKIILSDSHPLGILLERELENEIYKAIDKLPDECRRVFAKSRFEGKSYEEISGELGISINTVKYHIKNALASLHAHLSKYLISLLLFFFR | not soluble
14 | ESLCPQHHEALSLFCYEDQEAVCLICAISHTHRAHTVVPL | soluble
15 | MELPFSQACENNKDPILEVLKTAFSDCTRVLEVGSGTGQHAVYFASQLPNIHWQASDQKEYLPGVTARIKQEGVTNQPLPVEFDVFADAPGGTFNALFTANTCHIMPKEGVERLFEHLEGDLSSVERLCIYGPFNDNGHFTSDSNRGFHQSLQSRNSDMGIRDWQWITELANQQGFELKKIHPLPANNQLLEFQRLEHHHHHH | soluble
16 | MAGSATVEKRLDFGLLGPLQMTIDGTPVPSGTPKQRAVLAMLVINRNRPVGVDALITALWEEWPPSGARASIHSYVSNLRKLLGGAGIDPRVVLAAAPPGYRLSIPDNTCDLGRFVAEKTAGVHAAAAGRFEQASRHLSAALREWRGPVLDDLRDFQFVEPFATALVEDKVLAHTAKAEAEIACGRASAVIAELEALTFEHPYREPLWTQLITAYYLSDRQSDALGAYRRVKTTLADDLGIDPGPTLRALNERILRQQPLDAKKSAKTTAAGTVTVLDQRTMASGQQAVAYLHDIASGRGYPLQAAATRIGRLHDNDIVLDSANVSRHHAVIVDTGTNYVINDLRSSNGVHVQHERIRSAVTLNDGDHIRICDHEFTFQISAGTHGGT | soluble
17 | MAHHHHHHMKYGQVVVGPAGSGKTNYCKLMKEFMKIKKRNCYVVNLDSASEEYYYERKKKAINTTSNIEKELKQYYDTIYDIDIRNYVDVNSLMEDQMLGPNCALLRSVELLYENSYLLEDELNNYDDDENYFIIDTPGQIELYTHTDYFKKILSIFTDQNIRLIVVFLVDISFISSNTKLLSAYLTSLSTMINFELPHINILTKCDLLASKNYYQELRKFKHNNNFFFQRKLYKKINKKIKGGRGSRFFLNDKAEQSDGEGKRPSDDLGDTFLKEMECINGDKSFKDEYILCSDYDKRSVSSFSSASMSEGRSEKFGKNSSDEHSSSSVRSEEIEEKIYQKNYEKLNDILSLDPHDIVMTANKCMSRKYYKLNNAFAHIIEDFNLVSFIPLNIYDDDNVDFIINSIDMIIQYGEDKDVNDNYDM | not soluble
18 | MFDSTLNPLWQRYILAVQEEVKPALGCTEPISLALAAAVAAAELEGPVERVEAWVSPNLMKNGLGVTVPGTGMVGLPIAAALGALGGNANAGLEVLKDATAQAIADAKALLAAGKVSVKIQEPCDEILFSRAKVWNGEKWACVTIVGGHTNIVHIETHDGVVFTQQACVAEGEQESPLTVLSRTDAG | not soluble
19 | AHHHHHHGSYLEEKDGIKFYSLNKLEKEGFDVHSLPYSLRILAENILRHLNNGVVSYEHIENIFERKGDIPFYPARIIMQDYTGVPAIVDLAAMRDYIKEKGKDPSRVNPKIPVELVVDHSLIVLYHGTKYSLYENMKEELKANRERYSLLKWASKAFENLKIIPPGKGIIHQINVEHLARIVFLEEGIAYPDTVLGTDSHTPMVNGIGVLGWGVGGIEAEAALLGLPYFMKVPEVVGVVLEGEPSPEITPTDIVLTITEKLRKVGVVGKFLEYTGNVEALSAFDRTVIANMTPENGATVGYFPIDEETIKFIRLTRGESKAKLVEKYAKLNMLYREETPEFDKTVKIDLSKVEPSVAGPFHPEDRIRLKDLKNSFKVEKKTKIRINGGEVEIEDGIIGLAAIASCTNTSNPYNILAAALVAKKAVELGLRTKPWVKTTFTPGSRVVVKYLEKLGLLSYLEALGFHVNGYACASCIGNSGPLKREVEEVIDKGIKVAAVISGNRNFRRRVNSKIDYTYLASPPLVVVFAIAGKITIDPSEPLAYDPNGKPVYLTDILPTKEEVKKLEEVIGEELYKEAYSSLFEDSIWKDIETEESPLFKWDEKSTYVRKPPFFDLTPITDDIKGARALIVLGDRISTDDISPAGKIDPESPAGRYLLSLGVKPEELHTYGARRGNHEVMMRGTFARFKMIYWPTGEEMSVYEAAMRYKERGIPLIIIAGKQYGVGSSRDWAAKGPALLGVKAVIAESFERIHRSNLVGMGIVPLQFKDPEVRKRLTGEEVYDIIGLKDLYPGKTIKVIARKPNGEVIEFETIARVETPIEVEYIRHGGILKYALELLG | not soluble
20 | MEKKFPTVVTIGGRRYVKNNLNRKSEDCKMKLKEALKSFGRRVQKLQMSHCTIEKGTSLHVYKLDDARVIFTKKNKPIGFVVTGKAEEIDKSVYEKASSEINDATGKPNEPGAEERAEKDDASLID | not soluble
21 | AHHHHHHGSLSERMLKALNDQLNRELYSAYLYFAMAAYFEDLGLEGFANWMKAQAEEEIGHALRFYNYIYDRNGRVELDEIPKPPKEWESPLKAFEAAYEHEKFISKSIYELAALAEEEKDYSTRAFLEWFINEQVEEEASVKKILDKLKFAKDSPQILFMLDKELSARAPKLPGLLMQGGE | not soluble
22 | MAEKSLITQETVGMTDEGLPPVLQGRNNSTQQVSFLRARVKCTDQGLITKIGVLPRGAFIKSIKIYAMTDFEDVTATFGKEPHGNDYGDVGLTQSTDSNVYIPMEERDVPLEVENTIYMTRDKKSSKGDVEVIVEFYTNR | not soluble
23 | MGSDKIHHHHHHMQIKNLSLKNKKDLQIWKEFLTEHGISNFSSAEVFKIDETIALFEDQRIVATGSLAGNVLKYIAVESEGSGSEFNSVISQLTNLAAGKGIFHLFVFTKAKYSKSFQFIGFKELAKSDNAALLESGDYLIGDYLAELPRVANQEEKKIAGIVMNANPFTKGHRYLVEKAASENDYVYVFVVSTDASLFNSKERLQLVKEGTADLKNVFVVSGGDYMVSYATFPAYFLTSDQTVIEYQTTLDALIFKNQIAPVLNIQTRFLGEEPFSKTTGIYNRILEKVLPPSVSVKIIPRAKTQSETIITATEVRQLIAKNNLVPLKQFLPFTTIKYVEEHKTELQSRIKKGININGN | not soluble
24 | GPGSMKVFHFHGTYRALGVRPKDFSLRAETVDGWRTPVLTSDWERHCDVEGIVTPALSSAGNAASALEPKGPVQVVVATFSLPPGSYATSVLREFCIRTTENGQGNDLETEDEYSSCADTMSHDGCQERRNGRRHHRPASRCIVTRSMRICSLCRSLSPLSLLLLTYVM | soluble
